Experimental data: patent publication US5684129

Legend:
[1] = target: Type 1 human interferon receptor complex (human) (UniProt P17181); experiment: 125I-ligand binding to T98G cells at +4° C., Scatchard analysis, high affinity component
[2] = target: Type 1 human interferon receptor complex (human) (UniProt P17181)

Substance	Kd [1]	antiviral specific activity (EMCV on T98G cells) [2]
IFN-alphaCon1 (ligand)	7.7 pM	3e+09 U/mg protein
IFN-alpha1 Nδ4 (ligand)	–	7.1e+06 U/mg protein
